In publication PMC11673000 (2024):

B1: FAT10 wild type (His-3xFLAG-FAT10) [not stated] / NEDD8 ultimate buster-1 long (NUB1L) [not stated] (parent complex)
chain 1: MAPNASCLCVHVRSEEWDLMTFDANPYDSVKKIKEHVRSKTKVPVQDQVLLLGSKILKPRRSLSSYGIDKEKTIHLTLKVVKPSDEELPLFLVESGDEAKRHLLQVRRSSSVAQVKAMIETKTGIIPETQIVTCNGKRLEDGKMMADYGIRKGNLLFLACYCIGG
chain 2: MAQKKYLQAKLTQFLREDRIQLWKPPYTDENKKVGLALKDLAKQYSDRLECCENEVEKVIEEIRCKAIERGTGNDNYRTTGIATIEVFLPPRLKKDRKNLLETRLHITGRELRSKIAETFGLQENYIKIVINKKQLQLGKTLEEQGVAHNVKAMVLELKQSEEDARKNFQLEEEEQNEAKLKEKQIQRTKRGLEILAKRAAETVVDPEMTPYLDIANQTGRSIRIPPSERKALMLAMGYHEKGRAFLKRKEYGIALPCLLDADKYFCECCRELLDTVDNYAVLQLDIVWCYFRLEQLECLDDAEKKLNLAQKCFKNCYGENHQRLVHIKGNCGKEKVLFLRLYLLQGIRNYHSGNDVEAYEYLNKARQLFKELYIDPSKVDNLLQLGFTAQEARLGLRACDGNVDHAATHITNRREELAQIRKEEKEKKRRRLENIRFLKGMGYSTHAAQQVLHAASGNLDEALKILLSNPQMWWLNDSNPETDNRQESPSQENIDRLVYMGFDALVAEAALRVFRGNVQLAAQTLAHNGGSLPPELPLSPEDSLSPPATSPSDSAGTSSASTDEDMETEAVNEILEDIPEHEEDYLDSTLEDEEIIIAEYLSYVENRKSATKKN

Variants of: B1
Assay: HA-immunoprecipitation, SDS-PAGE and immunoblot (ECL quantification); HEK293T cells transiently co-transfected with HA-NUB1L and FLAG-FAT10; three independent experiments; parent: 4.3; read off a plot

response | Variant
~2.8 IP [FAT10] / Load [FAT10], FAT10 D = 1 | chain 1 S62D, chain 1 T77E
~1.8 IP [FAT10] / Load [FAT10], FAT10 D = 1 | chain 1 T77E
~2.5 IP [FAT10] / Load [FAT10], FAT10 D = 1 | chain 1 S64D, chain 1 T77E
~1.9 IP [FAT10] / Load [FAT10], FAT10 D = 1 | chain 1 S62D, chain 1 S64D, chain 1 T77E
~7.7 IP [FAT10] / Load [FAT10], FAT10 D = 1 | chain 1 S62D, chain 1 S64D, chain 1 S95D, chain 1 S109D
~4.7 IP [FAT10] / Load [FAT10], FAT10 D = 1 | chain 1 S62D, chain 1 S64D

Variants of: B1
Assay: HA-immunoprecipitation, SDS-PAGE and immunoblot (ECL quantification); HEK293T cells transiently co-transfected with HA-NUB1L and FLAG-FAT10; three independent experiments; parent: 4; read off a plot

response | Variant
~0.95 IP [FAT10] / Load [FAT10], FAT10 D = 1 | chain 1 T77E
~2.6 IP [FAT10] / Load [FAT10], FAT10 D = 1 | chain 1 S64D
~3 IP [FAT10] / Load [FAT10], FAT10 D = 1 | chain 1 S109D
~2.6 IP [FAT10] / Load [FAT10], FAT10 D = 1 | chain 1 S95D
~3.4 IP [FAT10] / Load [FAT10], FAT10 D = 1 | chain 1 S62D

Variants of: B1
Assay: HA-immunoprecipitation, SDS-PAGE and immunoblot (ECL quantification); HEK293T cells transiently co-transfected with HA-NUB1L and FLAG-FAT10; three independent experiments; parent: 4

response | Variant
1 IP [FAT10] / Load [FAT10], FAT10 D = 1 | chain 1 S62D, chain 1 S64D, chain 1 T77E, chain 1 S95D, chain 1 S109D

Variants of: B1
Assay: HA-immunoprecipitation, SDS-PAGE and immunoblot (ECL quantification); HEK293T cells transiently co-transfected with HA-NUB1L and FLAG-FAT10; three independent experiments; parent: 4.3

response | Variant
1 IP [FAT10] / Load [FAT10], FAT10 D = 1 | chain 1 S62D, chain 1 S64D, chain 1 T77E, chain 1 S95D, chain 1 S109D
